According to US20240270821A1, “GIP/GLP1/GCG TRI-RECEPTOR AGONISTS AND USES THEREOF” (priority 2023, published 2024):
Where a chain is given by its changes, count along the chain named.

T1: human GIP receptor (human) (UniProt P48546)
T1 sequence (looked up): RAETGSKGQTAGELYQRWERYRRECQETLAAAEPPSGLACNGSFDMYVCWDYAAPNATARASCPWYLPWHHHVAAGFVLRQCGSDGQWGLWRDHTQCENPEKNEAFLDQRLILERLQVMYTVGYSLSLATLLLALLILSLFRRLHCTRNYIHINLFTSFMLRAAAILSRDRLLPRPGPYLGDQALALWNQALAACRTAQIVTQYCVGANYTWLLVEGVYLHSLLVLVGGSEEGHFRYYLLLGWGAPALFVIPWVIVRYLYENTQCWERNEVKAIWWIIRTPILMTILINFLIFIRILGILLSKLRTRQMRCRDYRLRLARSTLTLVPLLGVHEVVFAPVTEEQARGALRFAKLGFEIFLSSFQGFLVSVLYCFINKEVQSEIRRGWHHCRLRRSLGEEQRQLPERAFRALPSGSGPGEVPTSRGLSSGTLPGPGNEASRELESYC

B1: Example 697 (peptide)
chain: YXQGTXTSDXXIXLDXKAQXXFIEXLIEGGPSSGEPPPEGTGE
modifications: synthetic construct; SITE 2: note = 2-Aminoisobutyric Acid; SITE 6: note = alpha-methyl-2-fluoro-L-phenylalanine; SITE 10: note = 3-(4-Pyridyl)-L-alanine; SITE 11: note = alpha-methyl-L-serine; SITE 13: note = alpha-methyl-leucine; SITE 16: note = L-ornithine; SITE 17: note = Lysine is chemically mo
B2: Example 724 (peptide)
chain: B1 chain with Q19A, X21E, E35A, E39S, E43X
modifications: synthetic construct; SITE 2: note = 2-Aminoisobutyric Acid; SITE 6: note = alpha-methyl-2-fluoro-L-phenylalanine; SITE 10: note = 3-(4-Pyridyl)-L-alanine; SITE 11: note = alpha-methyl-L-serine; SITE 13: note = alpha-methyl-leucine; SITE 16: note = L-ornithine; SITE 17: note = Lysine is chemically mo
B3: Example 745 (peptide)
chain: B1 chain with Q19A, X21E, E35A, E39S, T41G
modifications: synthetic construct; SITE 2: note = 2-Aminoisobutyric Acid; SITE 6: note = alpha-methyl-2-fluoro-L-phenylalanine; SITE 10: note = 3-(4-Pyridyl)-L-alanine; SITE 11: note = alpha-methyl-L-serine; SITE 13: note = alpha-methyl-leucine; SITE 16: note = L-ornithine; SITE 17: note = Lysine is chemically mo
B4: Example 725 (peptide)
chain: B1 chain with Q19A, X21E, E35A, E39S, G42E
modifications: synthetic construct; SITE 2: note = 2-Aminoisobutyric Acid; SITE 6: note = alpha-methyl-2-fluoro-L-phenylalanine; SITE 10: note = 3-(4-Pyridyl)-L-alanine; SITE 11: note = alpha-methyl-L-serine; SITE 13: note = alpha-methyl-leucine; SITE 16: note = L-ornithine; SITE 17: note = Lysine is chemically mo
B5: Example 748 (peptide)
chain: B1 chain with Q19A, X21E, E39S, T41G
modifications: synthetic construct; SITE 2: note = 2-Aminoisobutyric Acid; SITE 6: note = alpha-methyl-2-fluoro-L-phenylalanine; SITE 10: note = 3-(4-Pyridyl)-L-alanine; SITE 11: note = alpha-methyl-L-serine; SITE 13: note = alpha-methyl-leucine; SITE 16: note = L-ornithine; SITE 17: note = Lysine is chemically mo
B6: Example 746 (peptide)
chain: B1 chain with Q19A, X21E, E39S, T41G
modifications: synthetic construct; SITE 2: note = 2-Aminoisobutyric Acid; SITE 6: note = alpha-methyl-2-fluoro-L-phenylalanine; SITE 10: note = 3-(4-Pyridyl)-L-alanine; SITE 11: note = alpha-methyl-L-serine; SITE 13: note = alpha-methyl-leucine; SITE 16: note = L-ornithine; SITE 17: note = Lysine is chemically mo
B7: Example 747 (peptide)
chain: B1 chain with Q19A, X21E, E35A, E39S, T41G
modifications: synthetic construct; SITE 2: note = 2-Aminoisobutyric Acid; SITE 6: note = alpha-methyl-2-fluoro-L-phenylalanine; SITE 10: note = 3-(4-Pyridyl)-L-alanine; SITE 11: note = alpha-methyl-L-serine; SITE 13: note = alpha-methyl-leucine; SITE 16: note = L-ornithine; SITE 17: note = Lysine is chemically mo
B8: Example 702 (peptide)
chain: YXQGTXTSDXXIXLDXKAAXEFIEXLIEGGPSSGAPPPSGSE
modifications: synthetic construct; SITE 2: note = 2-Aminoisobutyric Acid; SITE 6: note = alpha-methyl-2-fluoro-L-phenylalanine; SITE 10: note = 3-(4-Pyridyl)-L-alanine; SITE 11: note = alpha-methyl-L-serine; SITE 13: note = alpha-methyl-leucine; SITE 16: note = L-ornithine; SITE 17: note = Lysine is chemically mo
B9: Example 703 (peptide)
chain: B8 chain with S41E
modifications: synthetic construct; SITE 2: note = 2-Aminoisobutyric Acid; SITE 6: note = alpha-methyl-2-fluoro-L-phenylalanine; SITE 10: note = 3-(4-Pyridyl)-L-alanine; SITE 11: note = alpha-methyl-L-serine; SITE 13: note = alpha-methyl-leucine; SITE 16: note = L-ornithine; SITE 17: note = Lysine is chemically mo
B10: Example 719 (peptide)
chain: B8 chain with A35E, S41T
modifications: synthetic construct; SITE 2: note = 2-Aminoisobutyric Acid; SITE 6: note = alpha-methyl-2-fluoro-L-phenylalanine; SITE 10: note = 3-(4-Pyridyl)-L-alanine; SITE 11: note = alpha-methyl-L-serine; SITE 13: note = alpha-methyl-leucine; SITE 16: note = L-ornithine; SITE 17: note = Lysine is chemically mo
B11: Example 720 (peptide)
chain: B8 chain with A35E
modifications: synthetic construct; SITE 2: note = 2-Aminoisobutyric Acid; SITE 6: note = alpha-methyl-2-fluoro-L-phenylalanine; SITE 10: note = 3-(4-Pyridyl)-L-alanine; SITE 11: note = alpha-methyl-L-serine; SITE 13: note = alpha-methyl-leucine; SITE 16: note = L-ornithine; SITE 17: note = Lysine is chemically mo
B12: Example 751 (peptide)
chain: B8 chain with A19Q, I27V
modifications: synthetic construct; SITE 2: note = 2-Aminoisobutyric Acid; SITE 6: note = alpha-methyl-2-fluoro-L-phenylalanine; SITE 10: note = 3-(4-Pyridyl)-L-alanine; SITE 11: note = alpha-methyl-L-serine; SITE 13: note = alpha-methyl-leucine; SITE 16: note = L-ornithine; SITE 17: note = Lysine is chemically mo
B13: Example 752 (peptide)
chain: B8 chain with A19Q, I27V, A35E
modifications: synthetic construct; SITE 2: note = 2-Aminoisobutyric Acid; SITE 6: note = alpha-methyl-2-fluoro-L-phenylalanine; SITE 10: note = 3-(4-Pyridyl)-L-alanine; SITE 11: note = alpha-methyl-L-serine; SITE 13: note = alpha-methyl-leucine; SITE 16: note = L-ornithine; SITE 17: note = Lysine is chemically mo
B14: Example 704 (peptide)
chain: YXQGTXTSDXXIXLDXKAAXEFIEXLIEGGPSSGAPPPSGSEE
modifications: synthetic construct; SITE 2: note = 2-Aminoisobutyric Acid; SITE 6: note = alpha-methyl-2-fluoro-L-phenylalanine; SITE 10: note = 3-(4-Pyridyl)-L-alanine; SITE 11: note = alpha-methyl-L-serine; SITE 13: note = alpha-methyl-leucine; SITE 16: note = L-ornithine; SITE 17: note = Lysine is chemically mo
B15: Example 726 (peptide)
chain: B14 chain with S41T, E43X
modifications: synthetic construct; SITE 2: note = 2-Aminoisobutyric Acid; SITE 6: note = alpha-methyl-2-fluoro-L-phenylalanine; SITE 10: note = 3-(4-Pyridyl)-L-alanine; SITE 11: note = alpha-methyl-L-serine; SITE 13: note = alpha-methyl-leucine; SITE 16: note = L-ornithine; SITE 17: note = Lysine is chemically mo
B16: Example 705 (peptide)
chain: B14 chain with S41E
modifications: synthetic construct; SITE 2: note = 2-Aminoisobutyric Acid; SITE 6: note = alpha-methyl-2-fluoro-L-phenylalanine; SITE 10: note = 3-(4-Pyridyl)-L-alanine; SITE 11: note = alpha-methyl-L-serine; SITE 13: note = alpha-methyl-leucine; SITE 16: note = L-ornithine; SITE 17: note = Lysine is chemically mo
B17: Example 695 (peptide)
chain: YXQGTXTSDXXIXLDXKAAXEFIEXLVEGGPSSGEPPPSGS
modifications: synthetic construct; SITE 2: note = 2-Aminoisobutyric Acid; SITE 6: note = alpha-methyl-2-fluoro-L-phenylalanine; SITE 10: note = 3-(4-Pyridyl)-L-alanine; SITE 11: note = alpha-methyl-L-serine; SITE 13: note = alpha-methyl-leucine; SITE 16: note = L-ornithine; SITE 17: note = Lysine is chemically mo
B18: Example 749 (peptide)
chain: B17 chain with A19Q, E35A, S41E
modifications: synthetic construct; SITE 2: note = 2-Aminoisobutyric Acid; SITE 6: note = alpha-methyl-2-fluoro-L-phenylalanine; SITE 10: note = 3-(4-Pyridyl)-L-alanine; SITE 11: note = alpha-methyl-L-serine; SITE 13: note = alpha-methyl-leucine; SITE 16: note = L-ornithine; SITE 17: note = Lysine is chemically mo
B19: Example 722 (peptide)
chain: B17 chain with V27I, E35A, S41X
modifications: C-terminal γGlu; C-terminal amide; synthetic construct; SITE 2: note = 2-Aminoisobutyric Acid; SITE 6: note = alpha-methyl-2-fluoro-L-phenylalanine; SITE 10: note = 3-(4-Pyridyl)-L-alanine; SITE 11: note = alpha-methyl-L-serine; SITE 13: note = alpha-methyl-leucine; SITE 16: note = L-ornithine; SITE 17: note = Lysine is chemically mo
B20: Example 698 (peptide)
chain: B17 chain with A19Q, E21X, V27I, S39E, S41E
modifications: synthetic construct; SITE 2: note = 2-Aminoisobutyric Acid; SITE 6: note = alpha-methyl-2-fluoro-L-phenylalanine; SITE 10: note = 3-(4-Pyridyl)-L-alanine; SITE 11: note = alpha-methyl-L-serine; SITE 13: note = alpha-methyl-leucine; SITE 16: note = L-ornithine; SITE 17: note = Lysine is chemically mo
B21: Example 750 (peptide)
chain: B17 chain with A19Q, S41E
modifications: synthetic construct; SITE 2: note = 2-Aminoisobutyric Acid; SITE 6: note = alpha-methyl-2-fluoro-L-phenylalanine; SITE 10: note = 3-(4-Pyridyl)-L-alanine; SITE 11: note = alpha-methyl-L-serine; SITE 13: note = alpha-methyl-leucine; SITE 16: note = L-ornithine; SITE 17: note = Lysine is chemically mo
B22: Example 707 (peptide)
chain: B17 chain with V27I
modifications: synthetic construct; SITE 2: note = 2-Aminoisobutyric Acid; SITE 6: note = alpha-methyl-2-fluoro-L-phenylalanine; SITE 10: note = 3-(4-Pyridyl)-L-alanine; SITE 11: note = alpha-methyl-L-serine; SITE 13: note = alpha-methyl-leucine; SITE 16: note = L-ornithine; SITE 17: note = Lysine is chemically mo

target: hGLP-1R (Homo sapiens, UniProt P43220); assay: cell-based or functional assay
Sequence (P43220 24-463): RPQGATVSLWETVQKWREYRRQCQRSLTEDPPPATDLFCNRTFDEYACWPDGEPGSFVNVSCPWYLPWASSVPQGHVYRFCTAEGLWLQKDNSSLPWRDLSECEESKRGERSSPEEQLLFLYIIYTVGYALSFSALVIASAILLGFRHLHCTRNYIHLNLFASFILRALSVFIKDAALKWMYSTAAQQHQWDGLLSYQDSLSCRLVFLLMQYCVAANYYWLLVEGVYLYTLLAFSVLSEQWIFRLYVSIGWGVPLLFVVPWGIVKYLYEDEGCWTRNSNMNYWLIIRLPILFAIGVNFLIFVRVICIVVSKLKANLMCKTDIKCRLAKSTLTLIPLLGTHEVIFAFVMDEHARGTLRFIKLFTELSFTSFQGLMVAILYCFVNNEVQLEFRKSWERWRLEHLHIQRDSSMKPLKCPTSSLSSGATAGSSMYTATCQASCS

Binder | Relative cAMP EC50 [nM] | cAMP Rel EC50 (1% HSA) [nM] | cAMP Rel EC50, nM (1% HSA) [nM]
B1 | 0.235 | 18.2 | 
B2 | 0.256 | 26.4 | 
B3 | 0.212 | 29 | 
B4 | 0.258 | 29.1 | 
B5 | 0.258 |  | 22.9
B6 | 0.261 | 38.6 | 
B7 | 0.229 |  | 20.3
B8 | 0.243 | 28.4 | 
B9 | 0.233 | 27.1 | 
B10 | 0.22 | 23.2 | 
B11 | 0.245 | 28.3 | 
B12 | 0.302 |  | 32.3
B13 | 0.274 |  | 44
B14 | 0.287 | 33.9 | 
B15 | 0.247 | 33.3 | 
B16 | 0.305 | 33.7 | 
B17 |  | 19.5 | 
B18 | 0.293 |  | 33.9
B19 | 0.252 | 27.2 | 
B20 | 0.252 | 20.6 | 
B21 | 0.302 |  | 39.1
B22 | 0.248 | 30.6 | 

target: T1, human GIP receptor (human); assay: cell-based or functional assay

Binder | Relative cAMP EC50 [nM] | cAMP Rel EC50 (1% HSA) [nM] | cAMP Rel EC50, nM (1% HSA) [nM]
B1 | 0.0109 | 0.607 | 
B2 | 0.0102 | 1.06 | 
B3 | 0.012 | 1.36 | 
B4 | 0.0126 | 1.39 | 
B5 | 0.0105 |  | 0.865
B6 | 0.0119 | 1.44 | 
B7 | 0.00955 |  | 0.651
B8 | 0.0116 | 1.25 | 
B9 | 0.0101 | 0.961 | 
B10 | 0.00998 | 0.882 | 
B11 | 0.0103 | 1.02 | 
B12 | 0.00759 |  | 1.27
B13 | 0.00689 |  | 1.74
B14 | 0.013 | 1.2 | 
B15 | 0.013 | 1.22 | 
B16 | 0.0128 | 1.15 | 
B17 |  | 0.772 | 
B18 | 0.00718 |  | 1.47
B19 | 0.01 | 0.953 | 
B20 | 0.0112 | 0.824 | 
B21 | 0.00784 |  | 1.34
B22 | 0.0107 | 1.05 | 

target: human glucagon receptor (human) (UniProt P47871); assay: cell-based or functional assay
Sequence (P47871 26-477): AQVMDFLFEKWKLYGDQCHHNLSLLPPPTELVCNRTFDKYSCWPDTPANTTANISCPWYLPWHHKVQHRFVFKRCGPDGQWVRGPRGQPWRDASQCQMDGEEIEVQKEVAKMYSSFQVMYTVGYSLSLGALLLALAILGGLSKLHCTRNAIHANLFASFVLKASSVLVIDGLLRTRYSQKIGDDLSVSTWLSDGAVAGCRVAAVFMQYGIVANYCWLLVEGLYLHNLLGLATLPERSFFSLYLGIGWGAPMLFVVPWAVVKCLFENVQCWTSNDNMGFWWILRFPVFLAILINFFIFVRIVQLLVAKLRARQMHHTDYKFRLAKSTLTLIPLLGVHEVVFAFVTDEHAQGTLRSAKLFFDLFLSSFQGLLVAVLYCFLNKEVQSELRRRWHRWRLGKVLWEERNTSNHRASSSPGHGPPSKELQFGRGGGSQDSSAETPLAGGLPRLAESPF

Binder | Relative cAMP EC50 [nM] | cAMP Rel EC50 (1% HSA) [nM] | cAMP Rel EC50, nM (1% HSA) [nM]
B1 | 1.71 | 130 | 
B2 | 1.74 | 209 | 
B3 | 1.86 | 266 | 
B4 | 1.49 | 244 | 
B5 | 1.42 |  | 156
B6 | 1.62 | 255 | 
B7 | 1.71 |  | 169
B8 | 1.5 | 196 | 
B9 | 1.56 | 201 | 
B10 | 1.44 | 181 | 
B11 | 1.78 | 239 | 
B12 | 1.9 |  | 267
B13 | 1.9 |  | 228
B14 | 1.85 | 239 | 
B15 | 1.71 | 226 | 
B16 | 1.7 | 234 | 
B17 |  | 164 | 
B18 | 2.21 |  | 28
B19 | 1.71 | 170 | 
B20 | 1.53 | 124 | 
B21 | 2 |  | 205
B22 | 1.06 | 199 | 
